Three molecules from patent US20210269548A1 (Kyowa Kirin, published 2021) can be followed below.

One test deals with mouse CSPG5-GST (mouse). Description: SPR Biacore T-100, antibody captured, mouse CSPG5-GST analyte. As to the method: The affinity of the anti-CSPG5 antibodies, the CSPG5202 IgG4PE(R409K), and the AVM IgG4PE(R409K) CSPG5202 dscFv produced in Example 2 for human CSPG5 and mouse CSPG5 was measured using Biacore T-100 (GE Healthcare).
Each of the antibodies was immobilized on a […] sensor chip using a Human antibody Capture kit, and the binding ability was evaluated using human CSPG5-GST and mouse CSPG5-GST produced in Example 4 as analytes. The obtained sensorgram was analyzed with BIA evaluation software, and the dissociation constant (KD value) was calculated.

Test [1] deals with T1, human CSPG5 (human, UniProt O95196 31-566).
T1 construct: Full-length gene expressed on cell membrane (Expi293F, L929); also called human CSPG5/Expi293F cells; human CSPG5/L929#09
T1 sequence: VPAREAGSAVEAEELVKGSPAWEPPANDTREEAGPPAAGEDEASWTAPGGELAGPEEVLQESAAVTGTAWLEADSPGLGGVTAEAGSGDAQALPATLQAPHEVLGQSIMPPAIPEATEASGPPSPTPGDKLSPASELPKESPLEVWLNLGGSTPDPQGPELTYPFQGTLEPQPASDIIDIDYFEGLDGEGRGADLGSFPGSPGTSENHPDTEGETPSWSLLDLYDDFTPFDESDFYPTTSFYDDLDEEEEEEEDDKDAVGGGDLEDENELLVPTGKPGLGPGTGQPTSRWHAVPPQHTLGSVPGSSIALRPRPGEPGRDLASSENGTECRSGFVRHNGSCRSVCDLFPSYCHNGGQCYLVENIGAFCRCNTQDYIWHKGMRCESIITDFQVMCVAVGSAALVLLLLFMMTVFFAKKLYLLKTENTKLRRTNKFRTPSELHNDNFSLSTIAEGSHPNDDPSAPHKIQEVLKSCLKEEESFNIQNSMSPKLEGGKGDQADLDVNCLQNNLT
Put plainly: FACS, 10 µg/mL antibody, human CSPG5/Expi293F vs Expi293F. The protocol:
(§1) Expi293F cells, human CSPG5/Expi293F cells, mouse CSPG5/Expi293F cells, and monkey CSPG5/Expi293F cells were separately suspended in Staining Buffer (SB) of PBS comprising 0.1% NaN₃ and 1% FBS and dispensed in a round-bottom 96-well plate (manufactured by Becton, Dickinson and Company). After centrifugation (2000 rpm, 4° C., 2 minutes), the supernatant was removed, and to the resulting pellet, 10 μg/mL of each antibody obtained in Example 2 was added to suspend the pellet, and the resulting suspension was left to stand for 30 minutes at ice temperature. After further centrifugation (2000 rpm, 4° C., 2 minutes), the supernatant was removed, and the resulting pellet was washed with SB, and thereafter, 1 μg/mL of an RPE fluorescently labeled goat anti-human antibody (manufactured by Southern Biotech, Inc.) was added thereto, and the resultant was incubated for 30 minutes at ice temperature. After washing with SB, the cells were suspended in SB, and the fluorescence intensity of each cell was measured using a flow cytometer FACS CANTO II (manufactured by Becton, Dickinson and Company). Note that as a negative control, 10 μg/mL of the anti-AVM antibody was used.
(§2) The detection results were analyzed, and a mean fluorescence intensity (MFI) was calculated using a geometric mean. Further, with respect to the MFI when the concentration of each antibody was 10 μg/mL, the ratio of the MFI (mean fluorescence intensity ratio) between the human CSPG5/Expi293F cells and the Expi293F cells (parent cell line) was calculated. Also for the monkey CSPG5/Expi293F cells and the mouse CSPG5/Expi293F cells, the mean fluorescence intensity ratio relative to the Expi293F cells (parent cell line) was calculated by the same procedure, and the results are shown in Table 3.

The target of test [2] is T2, mouse CSPG5 (mouse, UniProt Q71M36 31-566).
T2 construct: Full-length gene expressed on Expi293F cells; also called mouse CSPG5/Expi293F cells
T2 sequence: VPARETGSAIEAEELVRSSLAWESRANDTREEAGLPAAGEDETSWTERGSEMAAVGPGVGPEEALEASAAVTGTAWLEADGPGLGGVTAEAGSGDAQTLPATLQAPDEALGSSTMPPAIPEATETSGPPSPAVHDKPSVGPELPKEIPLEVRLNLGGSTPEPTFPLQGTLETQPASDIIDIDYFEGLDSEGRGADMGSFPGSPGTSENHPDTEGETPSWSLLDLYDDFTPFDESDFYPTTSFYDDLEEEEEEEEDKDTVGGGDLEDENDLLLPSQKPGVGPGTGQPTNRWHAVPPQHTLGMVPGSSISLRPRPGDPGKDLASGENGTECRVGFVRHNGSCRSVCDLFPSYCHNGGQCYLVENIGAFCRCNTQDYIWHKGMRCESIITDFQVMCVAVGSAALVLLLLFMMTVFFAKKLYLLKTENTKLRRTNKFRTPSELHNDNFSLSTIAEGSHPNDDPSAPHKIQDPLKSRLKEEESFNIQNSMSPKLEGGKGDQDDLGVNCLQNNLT
Put plainly: FACS, 10 µg/mL antibody, mouse CSPG5/Expi293F vs Expi293F. As to the method:
as §1, §2

The target of test [3] is T3, monkey CSPG5 (monkey (rhesus monkey), UniProt O95196 31-566 (human entry)).
T3 construct: Full-length gene expressed on Expi293F cells; also called monkey CSPG5/Expi293F cells; rhesus monkey CSPG5
T3 chain: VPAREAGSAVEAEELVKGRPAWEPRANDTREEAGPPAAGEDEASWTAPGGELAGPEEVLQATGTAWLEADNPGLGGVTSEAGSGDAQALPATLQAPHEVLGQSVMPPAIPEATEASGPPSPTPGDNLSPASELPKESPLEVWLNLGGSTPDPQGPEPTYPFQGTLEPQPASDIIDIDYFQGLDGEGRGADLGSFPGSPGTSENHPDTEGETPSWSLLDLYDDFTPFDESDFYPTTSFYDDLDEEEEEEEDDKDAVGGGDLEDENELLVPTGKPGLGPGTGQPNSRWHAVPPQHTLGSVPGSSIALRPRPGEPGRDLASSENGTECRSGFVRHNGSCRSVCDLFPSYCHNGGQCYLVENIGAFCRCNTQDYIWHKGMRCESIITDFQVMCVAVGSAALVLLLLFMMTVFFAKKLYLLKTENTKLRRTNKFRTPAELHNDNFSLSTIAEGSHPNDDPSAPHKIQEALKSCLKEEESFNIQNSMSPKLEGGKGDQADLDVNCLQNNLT
Description: FACS, 10 µg/mL antibody, monkey CSPG5/Expi293F vs Expi293F. As to the method: as §1, §2

Test [4] deals with T1, human CSPG5. Put plainly: FACS on CSPG5/Expi293F cells. As to the method:
as §1

Test [5] addresses T3, monkey CSPG5. Description: FACS on CSPG5/Expi293F cells. As to the method: as §1
Test [6] has as its target T2, mouse CSPG5. Put plainly: FACS on CSPG5/Expi293F cells. As to the method:
as §1

Where only a bound is given, the exact number is not on record here.

B1: CSPG5168 scFv-hG4PE(R409K) (Fc fusion)
VH: EVQLVETGGALVQPGGSLRLSCAGSGFIFSKYEMTWVRQAPGKGLEWVSTIGSLGLKTFYTDSVKGRFTTSRDNSRDTLFLQMDNLRVEDTAIYFCVKGGIRRADYWGKGTLVTVSS
VL: EIVMTQSPATLSLSPGERATLSCRASQSVSSYLAWYQQKPGQAPRLLIYDASNRATGIPARFSGSGSGTDFTLTISSLEPEDFAVYYCQQRSNWPLTFGGGTKVEIK
notes: also called anti-CSPG5 scFv-Fc antibody
With B1, the Kd with mouse CSPG5-GST is at most 10 nM. Also, the “Mean fluorescence intensity ratio” value was 5.46 ratio to parent cell line in the test with human CSPG5 [1], 5.81 ratio to parent cell line in the test with mouse CSPG5 [2] and 3.36 ratio to parent cell line in the test with monkey CSPG5 [3].

B2: AVM IgG4PE(R409K) CSPG5202 dscFv (bispecific antibody)
heavy: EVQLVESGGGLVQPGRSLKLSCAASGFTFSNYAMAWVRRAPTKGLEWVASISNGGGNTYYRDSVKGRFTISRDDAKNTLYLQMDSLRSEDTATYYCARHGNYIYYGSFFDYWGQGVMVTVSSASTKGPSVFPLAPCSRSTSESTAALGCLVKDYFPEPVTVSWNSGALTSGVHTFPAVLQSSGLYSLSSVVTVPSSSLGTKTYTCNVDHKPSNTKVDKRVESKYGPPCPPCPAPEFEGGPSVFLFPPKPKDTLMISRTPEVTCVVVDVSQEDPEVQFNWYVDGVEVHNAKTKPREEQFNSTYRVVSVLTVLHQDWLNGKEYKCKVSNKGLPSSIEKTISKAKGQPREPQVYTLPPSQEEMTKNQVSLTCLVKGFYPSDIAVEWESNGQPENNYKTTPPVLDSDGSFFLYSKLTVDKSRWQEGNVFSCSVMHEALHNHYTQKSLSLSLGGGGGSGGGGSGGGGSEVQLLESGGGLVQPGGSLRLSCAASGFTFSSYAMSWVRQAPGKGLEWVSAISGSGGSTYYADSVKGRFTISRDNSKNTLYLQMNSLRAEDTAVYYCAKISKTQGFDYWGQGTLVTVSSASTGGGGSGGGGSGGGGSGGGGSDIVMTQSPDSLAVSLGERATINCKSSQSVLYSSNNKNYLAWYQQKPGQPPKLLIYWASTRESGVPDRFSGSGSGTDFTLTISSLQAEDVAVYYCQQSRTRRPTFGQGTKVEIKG
light: QFVLSQPNSVSTNLGSTVKLSCKRSTGNIGSNYVSWYQQHEGRSPTTMIYRDDKRPDGVPDRFSGSIDRSSDSALLTINNVQTEDEADYFCQSYSSGINIFGGGTKLTVLGQPKAAPSVTLFPPSSEELQANKATLVCLISDFYPGAVTVAWKADSSPVKAGVETTTPSKQSNNKYAASSYLSLTPEQWKSHRSYSCQVTHEGSTVEKTVAPTECS
notes: also called anti-AVM-IgG4-CSPG5 dscFv bispecific antibody
As to B2, the binding result with human CSPG5 [4], with monkey CSPG5 [5] and in the test with mouse CSPG5 [6] was “binds” throughout. In addition, in the test with mouse CSPG5-GST, the dissociation constant (Kd) is at most 10 nM.

B3: CSPG5120 scFv-hG4PE(R409K) (Fc fusion)
VH: EVQLVQSGGGLVQPGGSLRLSCAASGFTFSNYWMTWVRQAPGEGPEWVANINQDGSQKYYVDSVKGRFTISRDNAKNSLNLQMNNLRAEDTALYYCAKSNAMDVWGQGTLVTVSS
VL: DIVMTQSPLSLPVTPGEPASISCRSSESLLHSNGYNYLNWYLQKPGQSPQLLIYLGSHRASGVPDRLSGSGSDTDFTLKISRVEAEDVGIYYCMQGRQTPITFGGGTKLEIK
notes: as for B1
In the test with mouse CSPG5-GST, B3 returned a Kd of at most 10 nM. Moreover, the “Mean fluorescence intensity ratio” value in the test with human CSPG5 [1] was 18.5 ratio to parent cell line; with mouse CSPG5 [2], 20.4 ratio to parent cell line; in the test with monkey CSPG5 [3] it was 8.01 ratio to parent cell line.
